Data from patent US20240158515A1 (Regeneron, published 2024).

Tests used:
[1] = target: full length human FGFR3b S249C on BaF3 cells (BAF3/FGFR3b_S249C, ACL11986) (human, UniProt P22607 23-808); assay: cell-based or functional assay
[2] = target: full length human FGFR3b S249C/V557M on BaF3 cells (human, UniProt P22607 23-808); assay: cell-based or functional assay
[3] = target: full length human FGFR3b S249C/V557L on BaF3 cells (human, UniProt P22607 23-808); assay: cell-based or functional assay
[4] = target: T1, cynomolgus FGFR3b expressed with a C-terminal myc-myc-hexahistidine tag (mfFGFR3b.mmH) (cynomolgus); assay: SPR Biacore, mAb captured on anti-hFc, 25C
T1 construct: also called REGN3521; mf FGFR3b ecto (R357G)(E23-G377;R357G).mmH
T1 chain: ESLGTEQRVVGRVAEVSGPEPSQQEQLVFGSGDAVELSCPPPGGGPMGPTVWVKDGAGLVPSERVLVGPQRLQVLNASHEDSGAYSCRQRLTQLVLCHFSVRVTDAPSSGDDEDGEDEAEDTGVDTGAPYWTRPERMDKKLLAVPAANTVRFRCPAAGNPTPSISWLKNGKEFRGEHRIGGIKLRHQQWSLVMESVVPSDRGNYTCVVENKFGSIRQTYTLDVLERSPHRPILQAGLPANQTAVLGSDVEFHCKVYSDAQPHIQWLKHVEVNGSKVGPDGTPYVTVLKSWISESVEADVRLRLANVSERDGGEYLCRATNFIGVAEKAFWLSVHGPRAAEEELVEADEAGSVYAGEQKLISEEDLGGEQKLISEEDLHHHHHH

[5] = target: T2, murine FGFR3b expressed with a C-terminal myc-myc-hexahistidine tag (mFGFR3b.mmH) (murine); assay: SPR Biacore, mAb captured on anti-hFc, 25C
T2 construct: also called REGN3215; monomeric murine FGFR3b
T2 chain: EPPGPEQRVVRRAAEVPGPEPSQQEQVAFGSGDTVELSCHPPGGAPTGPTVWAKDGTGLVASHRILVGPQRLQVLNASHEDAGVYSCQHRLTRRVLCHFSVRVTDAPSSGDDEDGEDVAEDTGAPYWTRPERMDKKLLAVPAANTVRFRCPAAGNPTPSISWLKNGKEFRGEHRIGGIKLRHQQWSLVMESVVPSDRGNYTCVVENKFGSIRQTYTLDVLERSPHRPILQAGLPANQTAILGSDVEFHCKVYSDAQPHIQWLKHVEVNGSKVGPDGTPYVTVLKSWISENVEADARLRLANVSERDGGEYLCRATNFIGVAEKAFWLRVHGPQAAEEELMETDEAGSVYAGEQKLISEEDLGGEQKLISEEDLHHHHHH

[6] = target: T3, human FGFR3b expressed with a C-terminal murine Fc tag (hFGFR3b.mFc) (human); assay: SPR Biacore, mAb captured on anti-hFc, 25C
T3 construct: called dimeric; also called REGN3153; dimeric human FGFR3b
T3 chain: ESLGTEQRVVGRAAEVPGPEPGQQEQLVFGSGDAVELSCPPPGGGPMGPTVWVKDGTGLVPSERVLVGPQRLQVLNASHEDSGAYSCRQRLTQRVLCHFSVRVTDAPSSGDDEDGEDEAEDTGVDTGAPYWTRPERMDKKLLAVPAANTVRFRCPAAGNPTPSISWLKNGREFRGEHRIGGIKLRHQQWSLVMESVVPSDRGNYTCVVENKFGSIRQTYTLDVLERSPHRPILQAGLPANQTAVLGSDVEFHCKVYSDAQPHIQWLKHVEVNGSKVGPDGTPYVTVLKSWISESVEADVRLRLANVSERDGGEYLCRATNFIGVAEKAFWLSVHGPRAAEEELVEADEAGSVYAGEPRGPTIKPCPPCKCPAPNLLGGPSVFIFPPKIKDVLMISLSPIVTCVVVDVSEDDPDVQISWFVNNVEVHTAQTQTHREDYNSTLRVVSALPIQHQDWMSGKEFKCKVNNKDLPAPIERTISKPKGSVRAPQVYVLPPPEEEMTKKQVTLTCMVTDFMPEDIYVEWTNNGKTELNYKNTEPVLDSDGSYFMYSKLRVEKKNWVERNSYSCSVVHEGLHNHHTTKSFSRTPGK

[7] = target: T3, human FGFR3b expressed with a …; assay: competition ELISA: 4 nM hFGFR3b-mFc binding to plate-coated hFGF acidic

B1: H4H30063P (antibody, human IgG4 S228P, kappa, V domains shown)
VH: QVQLQESGPGLVKPSETLSLTCTVSGDSINSYFWSWIRQLPGKELEWIGHIYSSGSTRYNPSLQSRVTISIDTSKNQFSLKLSSVTAADTAVYYCARGASAVDYWGQGTLVTVSS
VL: EIVLTQSPGTLSLSPGERATLSCRTSQSISSGYLAWYQQKPGQAPRLLIYGASRRATGIPDRFSGSGSGTDFTLTISRLEPEDFVVYYCQQYGSSPYTFGQGTKLEIKR
notes: HCVR 2, LCVR 10; also called REGN15684
- IC50, growth of BaF3 cells expressing FGFR3 S249C (CellTiter-Glo) [1]: 1.36 nM
- IC50, growth of BaF3 cells expressing FGFR3 S249C/V557M (CellTiter-Glo) [2]: 3.9 nM
- IC50, growth of BaF3 cells expressing FGFR3 S249C/V557L (CellTiter-Glo) [3]: 4.3 nM
- 90 nM mfFGFR3b.mmH Bind (RU) [4]: 212 RU
- Kd [4]: 0.275 nM
- koff [4]: 4.21e-05 s⁻¹
- kon [4]: 153000 M⁻¹ s⁻¹
- t½ [4]: 4.58 h
- 90 nM mFGFR3b.mmH Bind (RU) [5]: 259 RU
- Kd [5]: 0.137 nM
- koff [5]: 2.78e-05 s⁻¹
- kon [5]: 204000 M⁻¹ s⁻¹
- t½ [5]: 6.92 h
- 30 nM hFGFR3b.mFc Bind (RU) [6]: 296 RU
- Kd [6]: ≤ 0.0226 nM
- koff [6]: ≤ 1e-05 s⁻¹
- kon [6]: 442000 M⁻¹ s⁻¹
- t½ [6]: ≥ 19.2 h
- % Blocking at 200 nM mAb [7]: 95%
- IC50 [7]: 2 nM
